Assay [1] concerns the target Human PD-1 on CHO-S cells (human) (UniProt Q15116). Kind of assay: FACS on CHO-S.hPro1.C6 cells.
The target of assay [2] is Cynomolgus monkey PD-1 on transiently transfected 293F cells (cynomolgus monkey). Kind of assay: FACS on cyno PD-1 transfected 293F cells, experiment 1.
The target is the same in assay [3]. Kind of assay: FACS on cyno PD-1 transfected 293F cells, experiment 2.
Assay [4] has as its target Human PD-1 on CHO-S cells (human) (UniProt Q15116). Kind of assay: FACS competition on CHO-S.hPro1.C6 cells; competitor hProL1.ECD.mFc 5 µg/mL.
In assay [5] the target is Cynomolgus PD-1 (soluble analyte in SPR, Table 11) (cynomolgus) (UniProt B0LAJ3). Kind of assay: SPR Biacore 8K; antibody captured on anti-human Fc chip, PD-1 injected; 1:1 fit. For orientation: SPR reads the build-up and loss of mass on a sensor chip optically.
For assay [6], the target named is Human PD-1 (soluble analyte in SPR, Table 11) (human) (UniProt Q15116). The assay is described as above.
In assay [7] the target is Human PD-1 extracellular domain, mFc tag (human) (UniProt Q15116). Kind of assay: ELISA competition on coated hPro1.ECD.mFc; competitor hPro1L2.ECD.His; experiment 1.
Assay [8] shares this target. Kind of assay: ELISA competition on coated hPro1.ECD.mFc; competitor hPro1L2.ECD.His; experiment 2. A general note: In an ELISA, binding on a coated surface is turned into a signal by an enzyme label.
Assay [9] has as its target Cynomolgus PD-1 extracellular domain, hFc tag (cynomolgus) (UniProt B0LAJ3). Kind of assay: ELISA competition on coated cynoPro1.ECD.hFc; competitor cynoProL1.ECD.hFc.biotin 2.5 µg/mL; experiment 1.
Assay [10] has the same target. Kind of assay: ELISA competition on coated cynoPro1.ECD.hFc; competitor cynoProL1.ECD.hFc.biotin 2.5 µg/mL; experiment 2.

Human PD-1 (soluble analyte in SPR, Table 11) (human), sequence (Q15116 25-167 limits assumed): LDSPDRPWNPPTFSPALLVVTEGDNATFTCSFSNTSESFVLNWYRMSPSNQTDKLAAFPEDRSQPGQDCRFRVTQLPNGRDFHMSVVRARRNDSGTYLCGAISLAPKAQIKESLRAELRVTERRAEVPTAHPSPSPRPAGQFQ
Human PD-1 on CHO-S cells (human), sequence (Q15116 25-288): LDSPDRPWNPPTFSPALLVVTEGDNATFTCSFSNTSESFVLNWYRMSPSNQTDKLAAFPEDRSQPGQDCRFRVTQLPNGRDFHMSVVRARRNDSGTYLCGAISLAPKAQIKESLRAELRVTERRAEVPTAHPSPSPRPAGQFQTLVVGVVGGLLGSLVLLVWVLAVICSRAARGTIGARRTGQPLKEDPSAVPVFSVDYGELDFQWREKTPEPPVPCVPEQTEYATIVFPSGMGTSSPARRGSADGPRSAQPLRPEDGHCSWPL
Cynomolgus PD-1 (soluble analyte in SPR, Table 11) (cynomolgus), sequence (B0LAJ3 entry or part of it limits assumed): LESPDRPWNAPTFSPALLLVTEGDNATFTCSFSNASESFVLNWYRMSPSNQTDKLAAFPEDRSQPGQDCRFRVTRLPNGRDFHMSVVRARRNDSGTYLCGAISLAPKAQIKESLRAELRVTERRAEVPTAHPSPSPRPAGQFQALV
Cynomolgus PD-1 extracellular domain, hFc tag (cynomolgus), sequence (B0LAJ3 entry or part of it limits assumed): as above
Human PD-1 extracellular domain, mFc tag (human), sequence (Q15116 25-170): as the sequence (B0LAJ3 entry or part of it limits assumed) above, with E2D, A10P, L19V, A35T, R75Q, A144T counted along it

As usually defined, the EC50 is the concentration that produces a half-maximal response. By IC50 is commonly meant the concentration that gives 50% inhibition. A word on the Kd: it is the constant that tells how readily two partners part at equilibrium. A word on the koff: it is the rate constant with which the complex falls apart. The term kon denotes the second-order rate constant of association. As to “Benchmark antibody 1 (Opdivo, Nivolumab)”, the EC50 is 0.409 to 0.749 nM in [1], 0.55 nM in assay [2] and 1.98 nM in assay [3]. The half-maximal inhibitory concentration (IC50) turned out to be 0.544 nM in [4]; 0.95 nM in assay [7]; 0.534 nM in [8]; 0.47 nM in assay [9]; 0.585 nM in assay [10]. In addition, the Kd is 2.23 nM in assay [5] and 2.87 nM in assay [6]. The figures for the koff in [5] and in assay [6] were 0.000672 s⁻¹ and 0.00116 s⁻¹, respectively. Besides, the kon in [5] came out at 301000 M⁻¹ s⁻¹; in [6] it was 405000 M⁻¹ s⁻¹.
